Test results from US20200109194A1 (BLUEFIN BIOMEDICINE, published 2020).
Residue numbers refer to the chain shown, from its start. Names may count otherwise.

T1: human TMEFF1 extracellular domain recombinant protein (plasmid BBP377, S40-V330, C-terminal 8xHis) (human, UniProt Q8IYR6 40-330)
T1 construct: Secreted from CHO cells with a non-native signal peptide (not part of the mature protein); also called hTMEFF1 ECD; hTMEFF1-ECD
T1 sequence: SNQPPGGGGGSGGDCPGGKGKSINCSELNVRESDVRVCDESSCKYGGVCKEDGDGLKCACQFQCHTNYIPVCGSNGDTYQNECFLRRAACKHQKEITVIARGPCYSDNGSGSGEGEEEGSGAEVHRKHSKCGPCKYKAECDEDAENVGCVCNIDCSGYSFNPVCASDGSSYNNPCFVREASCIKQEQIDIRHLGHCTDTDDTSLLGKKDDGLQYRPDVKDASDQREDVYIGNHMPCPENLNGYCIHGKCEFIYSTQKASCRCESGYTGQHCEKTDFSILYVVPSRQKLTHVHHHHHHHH

B1: 37G7 (antibody, human IgG1, V domains shown)
VH: QVQLVESGGGVVQPGRSLRLSCAASGFTFTSYGMHWVRQAPGKGLEWVAVVWYEGSSKFYVDSVKGRFIISRDNSKNTLYLQMNSLRAEDTAVYYCARAYCGGDCYPFDYWGQGTLVTVSS
VL: DIQMTQSPSSLSASVGDRVTITCRASQGISNYLAWYQQKPGKVPKLLIYAASTLQSGVPSRFSGSGSGTDFTLTISSLQPEDVATYYCQKYNSAPWTFGQGTKVEIK
B2: 29C4 (antibody, human IgG1, V domains shown)
VH: B1 VH with T30S, S31N, V51I, E54D, S56G, S57P, V61A, I69T, A99S, T115D
VL: B1 VL with N92Y
B3: 35B1 (antibody, human IgG1, V domains shown)
VH: B1 VH with S31T, Y53F, S56N, V61I, Y80F, Y100N, G103A
VL: B1 VL with T72S, Q79R
B4: 10C10 (antibody, human IgG1, V domains shown)
VH: QVQLVESGGGVVQPGRSLRLSCATSGFTFSIYGMHWVRQAPGKGLEWVAIIWYDGNKKYYADSVKGRFTISRDNSKNTLYLQMNSLRAEDTAVYYCARDPYTSSLDYWGQGTLVTVSS
VL: DIQLTQSPSFLSASVGDRVTITCRASQGISSYLAWYQQKPGKAPKLLIYAASTLQSGVPSRFSGSGSGTEFTLTISSLQPEDFATYYCQQLNSYPLTFGGGTKLEIK
B5: 7F12 (antibody, human IgG1, V domains shown)
VH: B4 VH with T24A, N56S, K57D, S103T
VL: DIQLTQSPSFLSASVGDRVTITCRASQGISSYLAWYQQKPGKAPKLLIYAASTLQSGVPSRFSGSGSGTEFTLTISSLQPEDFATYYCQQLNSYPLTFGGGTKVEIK
B6: 18C2 (antibody, human IgG1, V domains shown)
VH: B4 VH with T24A, K43M, W52R, N56S, K57N, Q82R, Y101F
VL: B4 VL
B7: 19D9 (antibody, human IgG1, V domains shown)
VH: B4 VH with T24A, I50N, N56S, A92S
VL: B4 VL with A50T
B8: 11F9 (antibody, human IgG1, V domains shown)
VH: EVQLVESGGGLVKPGGSLRLSCAASGFTFSYAWMSWVRQAPGKGLEWVGRIKSKTDGGTTDYAAPVKGRFTISRDDSKNTLYLQLNSLKIEDTAVYYCTTGRIAAAGFDYWAQGTLVTVSS
VL: DAVVTQESALTTSPGETVTLTCRSSTGTVTTSNYANWVQEKPDHLFTGLIAGTNNRAPGVPARFSGSLIGDKAVLTITGAQTEDEAIYFCALWYSNHWVFGGGTKLTVLG
B9: 3H9 (antibody, human IgG1, V domains shown)
VH: B8 VH with T28V, S35N, D56E, Y62N, D75E, A112G
VL: B8 VL with V74A
B10: 6C11 (antibody, human IgG1, V domains shown)
VH: QVQLQQSGPGLVKPSQTLSLTCAISGDSVSSNSAAWNWIRQSPSRGLEWLGRTYYRSKWYNDYPVSVKSRITINPDTSKNQVSLQLNPVTPEDTAVYYCTREQGYSSSRYYYYYGMDVWGQGTTVTVSS
VL: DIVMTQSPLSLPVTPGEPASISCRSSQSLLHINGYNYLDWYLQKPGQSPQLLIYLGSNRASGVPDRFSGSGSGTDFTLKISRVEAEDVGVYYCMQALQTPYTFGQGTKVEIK
B11: M17 (antibody, human IgG1, V domains shown)
VH: QVQLVESGGGVVQPGRSLRLSCAASGFTFRSYGMHWVRQAPGKGLEWVALIWYDGGDQYYADSVKGRFTISRDSSKSTLYLQMNSLRAEDTAVYYCARAQCGDDCYPFDYWGQGTLVTVSS
VL: B1 VL with S30Y, A94D, V104L
B12: M33F (antibody, human IgG1, V domains shown)
VH: QVQLQESGPGLVKPSETLSLTCAVSGYSISSGYFWGWIRQPPGKKLEWIGSIYHSGSTYYNPSLKSRVTMSVDTSKNQFSLKLSSVTAADTAVYYCAREGDCSGGICYWYFDLWGRGTLVTVSS
VL: B4 VL with L4M, F10S, S31N, A43V, F71V, P80S, T85V, L91Y, S93K, Y94W
B13: M1H1 (antibody, human IgG1, V domains shown)
VH: B12 VH
VL: B1 VL with V83F, T85V, K90Q, S93K, A94W, W96L, Q100G, V104L
B14: 24F10 (antibody, V domains shown)
VH: QVQLVESGGGVVQPGRSLRLSCAASGFTFSSYGMHWVRQAPGKGLEWVAVIWYDGSDKYYTDSVKGRFTISRDNSKNTLYLQMNSLRAEDTAVYYCARESMVRGIVITFFDYWGQGTLVTVSS
VL: EIVMTQSPATLSVSPGERATLSCRASQSVSSNLAWYQQKPGQAPRLLIYGASTRATGIPARFSGSGSGTEFTLTISSLQSEDFAVYSCQHYNNWPPTFGGGTKVEIK
B15: 30C10 (antibody, human IgG1, V domains shown)
VH: B14 VH with T61A, N77K, Y95F, S100T, M101I, V102F, I105L, V106T, Y112H
VL: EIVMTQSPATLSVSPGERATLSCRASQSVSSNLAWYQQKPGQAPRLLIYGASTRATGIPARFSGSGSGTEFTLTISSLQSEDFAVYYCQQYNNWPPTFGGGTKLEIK
B16: 43B2_56A6 (antibody, human IgG1, V domains shown)
VH: EVQLLESGGGLVQPGGSLRLSCAASGFTFSSYAMSWVRQAPGKGLEWVSTISGSGDSTYYADSVKGRFTISRDNSKNTLYLQMNSLRAEDTAIYYCAKFGVRGVIITNWFDPWGQGTLVTVSS
VL: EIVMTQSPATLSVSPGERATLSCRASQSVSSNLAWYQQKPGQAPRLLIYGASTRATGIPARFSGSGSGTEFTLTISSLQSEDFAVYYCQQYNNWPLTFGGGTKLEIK
B17: 50B4_56B2 (antibody, human IgG1, V domains shown)
VH: B16 VH with A88V
VL: B14 VL with A43V, S87Y, H90Q, P96L
B18: 31B7 (antibody, human IgG1, V domains shown)
VH: QVQLVESGGGVVQPGRSLRLSCAASGFTFSSYGMHWVRQAPGKGLEWVAVIWYNGINKYYADSVKGRFTISRDASKNTLYLQMNSLRAEDTAVYYCAREGLLWFGGMDVWGQGTTVTVSS
VL: EIVLTQSPLSLPVTPGEPASISCRSSQSLLHSNGYNYLHWYLQKPGQSPQLLIYLGSNRASGVPDRFSGSRSGTDFTLKIIRVEAEDVGVYYCMQALQTPYTFGQGTKLEIK
B19: 34E1_56A4 (antibody, human IgG1, V domains shown)
VH: B18 VH with F27L, S31R, G33A, N54D, I56S, A74T
VL: B18 VL with E1D, R71G, I81S, V90L
B20: 27G5_56A2 (antibody, V domains shown)
VH: QVQLQESGPGLVKPSETLSLTCAVSDYSISSGYYWGWIRQPPGKGLEWIGSIYHSGSTYYNPSLKSRVTISVDMSKNQFSLKLSSVTAADTAVYYCARDRDSVSWNGGRDYYYYGMDVWGQGTTVTVSS
VL: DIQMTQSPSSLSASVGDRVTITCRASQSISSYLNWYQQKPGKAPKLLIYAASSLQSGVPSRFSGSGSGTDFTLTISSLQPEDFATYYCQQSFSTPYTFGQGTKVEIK
B21: 34B7 (antibody, human IgG1, V domains shown)
VH: B1 VH with S56N, V61I, G103D
VL: B1 VL with V104L
B22: M10 (antibody, human IgG1, V domains shown)
VH: B14 VH with V11G, S31R, K58E, T61A, S100T, V102G, V106I, T108S, F109Y, L118P
VL: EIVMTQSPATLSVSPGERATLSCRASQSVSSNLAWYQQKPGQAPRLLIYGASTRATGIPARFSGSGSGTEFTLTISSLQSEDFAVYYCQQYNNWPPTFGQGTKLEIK

The binders below were run against T1, human TMEFF1 extracellular domain … (assay: BLI (Octet Red), His-tagged TMEFF1 ECD and deletion mutants on anti-Penta-His biosensors, unpurified recombinant antibody).
Experimental: TMEFF1 recombinant proteins expressing 3 different deletion mutants, AFS1 (AFollistatin Domain 1), AFS2 (AFollistatin Domain 2) or AFS1&FS2 were used to identify binding domains among different antibodes using an Octet Red instrument with Anti-Penta-His (HIS 1K) biosensors. […] 100 ngs of purified TMEFF1 ECD was run along with unpurified supernatant of transfected CHO cells with the different deletion mutants. HIS 1K biosensors were loaded by submerging the biosensors into wells containing 10 ug/ml of full length TMEFF1 or one of 3 different deletion mutants (AFS1, AFS2 or AFS1&FS2) for 60 seconds. Following the loading step, the biosensors were then dipped for 30 seconds in PBS before immersion for 30 seconds in 200 ul of unpurified recombinant antibodies for 30 seconds. The biosensors were then dipped briefly (30 seconds) in PBS to observe any dissociation. […] Differential binding to the deletion mutants allowed for determination of binding sites on TMEFF1 recombinant protein. For cases where the antibody bound all 3 recombinant proteins, the binding is outside of the deleted domains.
26 of the identified antibodies were checked for epitope domain binding by Octet™ using the hTMEFF1-ECD recombinant deletion mutants (see Table 7, below).
B1: binds.
B2: binds.
B3: binds.
B4: binds.
B5: binds.
B6: binds.
B7: binds.
B8: binds.
B9: binds.
B10: binds.
B11: binds.
B12: binds.
B13: binds.

Each binder was assayed against T1, human TMEFF1 extracellular domain … (assay: BLI (Octet Red), antibody on Protein A biosensor, recombinant hTMEFF1 ECD as analyte).
Experimental: (§1) The affinity of antibodies to various recombinant TMEFF1 protein was determined on an Octet Red™ instrument. After loading reagents into a 96-well plate, the Octet Red™ with Protein A-conjugated biosensors was programmed as follows: 30 seconds for baseline #1; 120 seconds to immobilize the antibody; 30 seconds for baseline #2; 300 seconds for association of antibody to recombinant TMEFF1; and 300-600 seconds for dissociation of recombinant TMEFF1 from the antibody.
Affinity of thirteen antibodies was calculated using hTMEFF1 ECD recombinant protein by Octet™.
B14 showed a Kd of 50 nM.
B15 gave a Kd of 4 nM.
B16 gave a Kd of 39 nM.
In the case of B17, the Kd is reported as 52 nM.
In the case of B18, the Kd is reported as 43 nM.
For B19, the Kd was 98 nM.
For B20, the Kd was 69 nM.
In the case of B21, the Kd is reported as 20 nM.
B22 was tested, and the Kd was 9 nM.

The binders below were run against T2, Macaca fascicularis TMEFF1 extracellular domain recombinant protein (plasmid BBP480, S40-V330, C-terminal … (Macaca fascicularis)) (assay: BLI (Octet Red), antibody on Protein A biosensor, recombinant cyTMEFF1 ECD as analyte).
T2 construct: range 40-330; also called cyTMEFF1 ECD; monkey TMEFF1 ectodomain
Experimental: as §1
Affinity of 7 antibodies was calculated using cyTMEFF1 ECD recombinant protein by Octet™.
With B14 the Kd was 65 nM.
B15 gave a Kd of 7 nM.
B18 showed a Kd of 101 nM.
For B21, the Kd was 22 nM.
B22 was tested, and the Kd was 7 nM.
